Results reported in the Immune Epitope Database (IEDB).

Columns and labels:
HLA-A*01:01 [1] = assay: IEDB peptide-MHC binding, purified MHC/direct/fluorescence; filed as Kd, often an IC50 or EC50 that approximates it; ≥ and ≤ were set here for values at or beyond the usual limits of such assays
HLA-A*02:01 [2] = assay: as above
HLA-A*03:01 [3] = assay: as above
HLA-A*24:02 = assay: as above
HLA-A*26:01 = assay: as above
HLA-A*31:01 [4] = assay: as above
HLA-A*69:01 = assay: as above
HLA-B*07:02 [5] = assay: as above
HLA-B*08:02 = assay: as above
HLA-B*15:01 = assay: as above
HLA-B*15:09 = assay: as above
HLA-B*27:05 = assay: as above
HLA-B*40:01 [6] = assay: as above
HLA-B*44:02 [7] = assay: as above
HLA-B*46:01 = assay: as above
HLA-B*58:01 = assay: as above
HLA-A*11:01 [8] = assay: as above
HLA-B*08:01 [9] = assay: as above
HLA-B*18:01 [10] = assay: as above
HLA-A*24:03 = assay: as above; conditions: source organism: Influenza A virus (A/camel/Mongolia/1982(H1N1))
HLA-A*01:01 [11] = assay: IEDB peptide-MHC binding, purified MHC/competitive/radioactivity; filed as Kd, often an IC50 or EC50 that approximates it; ≥ and ≤ were set here for values at or beyond the usual limits of such assays; conditions: source organism: Hepacivirus hominis
HLA-A*02:01 [12] = assay: as above; conditions: source organism: Hepacivirus hominis
HLA-A*02:02 = assay: as above; conditions: source organism: Hepacivirus hominis
HLA-A*02:03 = assay: as above; conditions: source organism: Hepacivirus hominis
HLA-A*02:06 = assay: as above; conditions: source organism: Hepacivirus hominis
HLA-A*03:01 [13] = assay: as above; conditions: source organism: Hepacivirus hominis
HLA-A*11:01 [14] = assay: as above; conditions: source organism: Hepacivirus hominis
HLA-A*31:01 [15] = assay: as above; conditions: source organism: Hepacivirus hominis
HLA-A*33:01 = assay: as above; conditions: source organism: Hepacivirus hominis
HLA-A*68:01 = assay: as above; conditions: source organism: Hepacivirus hominis
HLA-A*68:02 = assay: as above; conditions: source organism: Hepacivirus hominis
HLA-B*07:02 [16] = assay: as above; conditions: source organism: Hepacivirus hominis
HLA-B*08:01 [17] = assay: as above; conditions: source organism: Hepacivirus hominis
HLA-B*18:01 [18] = assay: as above; conditions: source organism: Hepacivirus hominis
HLA-B*35:01 = assay: as above; conditions: source organism: Hepacivirus hominis
HLA-B*40:01 [19] = assay: as above; conditions: source organism: Hepacivirus hominis
HLA-B*40:02 = assay: as above; conditions: source organism: Hepacivirus hominis
HLA-B*44:02 [20] = assay: as above; conditions: source organism: Hepacivirus hominis
HLA-B*44:03 = assay: as above; conditions: source organism: Hepacivirus hominis
HLA-B*51:01 = assay: as above; conditions: source organism: Hepacivirus hominis
HLA-B*53:01 = assay: as above; conditions: source organism: Hepacivirus hominis
HLA-B*54:01 = assay: as above; conditions: source organism: Hepacivirus hominis
[21] = source organism: Vibrio parahaemolyticus
[22] = source organism: Vibrio vulnificus CMCP6
[23] = source organism: Influenza A virus (A/camel/Mongolia/1982(H1N1))
[24] = source organism: Influenza A virus H3N2
[25] = source organism: Influenza A virus (A/Puerto Rico/8/34/Mount Sinai(H1N1))
[26] = source organism: Giardia lamblia ATCC 50803
[27] = source organism: Influenza A virus (A/chicken/Hunan/fg/2004(H5N1))
[28] = source organism: Influenza B virus (B/Chiba/447/98)

Sequence: ASEELMDKY
- Kd (HLA-A*01:01 [1]; [21]): 0.0272 µM
- Kd (HLA-A*02:01 [2]; [21]): ≥ 20 µM
- Kd (HLA-A*03:01 [3]; [21]): ≥ 20 µM
- Kd (HLA-A*24:02; [21]): ≥ 20 µM
- Kd (HLA-A*26:01; [22]): ≥ 20 µM
- Kd (HLA-A*31:01 [4]; [21]): ≥ 20 µM
- Kd (HLA-A*69:01; [21]): ≥ 20 µM
- Kd (HLA-B*07:02 [5]; [21]): ≥ 20 µM
- Kd (HLA-B*08:02; [22]): ≥ 20 µM
- Kd (HLA-B*15:01; [21]): ≥ 20 µM
- Kd (HLA-B*15:09; [22]): ≥ 20 µM
- Kd (HLA-B*27:05; [21]): ≥ 20 µM
- Kd (HLA-B*40:01 [6]; [21]): ≥ 20 µM
- Kd (HLA-B*44:02 [7]; [21]): ≥ 20 µM
- Kd (HLA-B*46:01; [21]): ≥ 20 µM
- Kd (HLA-B*58:01; [21]): ≥ 20 µM

Sequence: EKFFPSSSY
- Kd (HLA-A*01:01 [1]; [23]): ≥ 20 µM
- Kd (HLA-A*02:01 [2]; [23]): ≥ 20 µM
- Kd (HLA-A*03:01 [3]; [23]): ≥ 20 µM
- Kd (HLA-A*11:01 [8]; [23]): ≥ 20 µM
- Kd (HLA-A*24:02; [23]): ≥ 20 µM
- Kd (HLA-A*31:01 [4]; [23]): ≥ 20 µM
- Kd (HLA-A*69:01; [23]): ≥ 20 µM
- Kd (HLA-B*07:02 [5]; [23]): ≥ 20 µM
- Kd (HLA-B*08:01 [9]; [23]): ≥ 20 µM
- Kd (HLA-B*08:02; [24]): ≥ 20 µM
- Kd (HLA-B*15:01; [25]): 1.12 µM
- Kd (HLA-B*27:05; [23]): ≥ 20 µM
- Kd (HLA-B*58:01; [23]): ≥ 20 µM

Sequence: IVKYKQYLK
- Kd (HLA-A*01:01 [1]; [26]): ≥ 20 µM
- Kd (HLA-A*02:01 [2]; [26]): ≥ 20 µM
- Kd (HLA-A*03:01 [3]; [26]): 0.0815 µM
- Kd (HLA-A*24:02; [26]): ≥ 20 µM
- Kd (HLA-A*69:01; [26]): ≥ 20 µM
- Kd (HLA-B*07:02 [5]; [26]): ≥ 20 µM
- Kd (HLA-B*08:01 [9]; [26]): ≥ 20 µM
- Kd (HLA-B*08:02; [26]): ≥ 20 µM
- Kd (HLA-B*15:01; [26]): ≥ 20 µM
- Kd (HLA-B*18:01 [10]; [26]): ≥ 20 µM
- Kd (HLA-B*27:05; [26]): ≥ 20 µM
- Kd (HLA-B*40:01 [6]; [26]): ≥ 20 µM
- Kd (HLA-B*44:02 [7]; [26]): ≥ 20 µM
- Kd (HLA-B*46:01; [26]): ≥ 20 µM
- Kd (HLA-B*58:01; [26]): ≥ 20 µM

Sequence: KFFPSSSYR
- Kd (HLA-A*01:01 [1]; [23]): ≥ 20 µM
- Kd (HLA-A*02:01 [2]; [23]): ≥ 20 µM
- Kd (HLA-A*03:01 [3]; [25]): 0.184 µM
- Kd (HLA-A*24:02; [23]): ≥ 20 µM
- Kd (HLA-A*24:03): ≥ 20 µM
- Kd (HLA-A*69:01; [23]): ≥ 20 µM
- Kd (HLA-B*07:02 [5]; [23]): ≥ 20 µM
- Kd (HLA-B*08:01 [9]; [23]): ≥ 20 µM
- Kd (HLA-B*15:01; [23]): ≥ 20 µM
- Kd (HLA-B*15:09; [24]): ≥ 20 µM
- Kd (HLA-B*18:01 [10]; [23]): ≥ 20 µM
- Kd (HLA-B*27:05; [23]): ≥ 20 µM
- Kd (HLA-B*40:01 [6]; [23]): ≥ 20 µM
- Kd (HLA-B*44:02 [7]; [23]): ≥ 20 µM
- Kd (HLA-B*46:01; [23]): ≥ 20 µM
- Kd (HLA-B*58:01; [23]): ≥ 20 µM

Sequence: RPALVFDITK
- Kd (HLA-A*01:01 [11]): ≥ 51.3 µM
- Kd (HLA-A*02:01 [12]): ≥ 37.4 µM
- Kd (HLA-A*02:02): ≥ 70 µM
- Kd (HLA-A*02:03): ≥ 70.4 µM
- Kd (HLA-A*02:06): 12.3 µM
- Kd (HLA-A*03:01 [13]): ≥ 29.7 µM
- Kd (HLA-A*11:01 [14]): 0.796 µM
- Kd (HLA-A*31:01 [15]): ≥ 70 µM
- Kd (HLA-A*33:01): ≥ 70 µM
- Kd (HLA-A*68:01): 0.133 µM
- Kd (HLA-A*68:02): ≥ 69.8 µM
- Kd (HLA-B*07:02 [16]): 0.222 µM
- Kd (HLA-B*08:01 [17]): ≥ 49.8 µM
- Kd (HLA-B*18:01 [18]): ≥ 70.5 µM
- Kd (HLA-B*35:01): ≥ 27.4 µM
- Kd (HLA-B*40:01 [19]): ≥ 69.6 µM
- Kd (HLA-B*40:02): ≥ 70.8 µM
- Kd (HLA-B*44:02 [20]): ≥ 70.2 µM
- Kd (HLA-B*44:03): 15.6 µM
- Kd (HLA-B*51:01): ≥ 69.6 µM
- Kd (HLA-B*53:01): 18.9 µM
- Kd (HLA-B*54:01): 11.2 µM

Sequence: SVFHEHIFK
- Kd (HLA-A*01:01 [1]; [26]): ≥ 20 µM
- Kd (HLA-A*02:01 [2]; [26]): ≥ 20 µM
- Kd (HLA-A*03:01 [3]; [26]): 0.154 µM
- Kd (HLA-A*11:01 [8]; [26]): 0.0092 µM
- Kd (HLA-A*24:02; [26]): ≥ 20 µM
- Kd (HLA-A*26:01; [26]): ≥ 20 µM
- Kd (HLA-A*31:01 [4]; [26]): 0.134 µM
- Kd (HLA-A*69:01; [26]): ≥ 20 µM
- Kd (HLA-B*07:02 [5]; [26]): ≥ 20 µM
- Kd (HLA-B*15:01; [26]): ≥ 20 µM
- Kd (HLA-B*27:05; [26]): ≥ 20 µM
- Kd (HLA-B*40:01 [6]; [26]): ≥ 20 µM
- Kd (HLA-B*44:02 [7]; [26]): ≥ 20 µM
- Kd (HLA-B*58:01; [26]): ≥ 20 µM

Sequence: YSHGTGTGY
- Kd (HLA-A*02:01 [2]; [27]): ≥ 20 µM
- Kd (HLA-A*03:01 [3]; [27]): ≥ 20 µM
- Kd (HLA-A*11:01 [8]; [27]): ≥ 20 µM
- Kd (HLA-A*24:02; [27]): ≥ 20 µM
- Kd (HLA-A*26:01; [28]): 0.02 µM
- Kd (HLA-A*31:01 [4]; [27]): ≥ 20 µM
- Kd (HLA-A*69:01; [27]): ≥ 20 µM
- Kd (HLA-B*07:02 [5]; [27]): ≥ 20 µM
- Kd (HLA-B*08:01 [9]; [27]): ≥ 20 µM
- Kd (HLA-B*08:02; [28]): ≥ 20 µM
- Kd (HLA-B*15:01; [25]): 0.099 µM
- Kd (HLA-B*27:05; [27]): ≥ 20 µM
- Kd (HLA-B*40:01 [6]; [27]): ≥ 20 µM
- Kd (HLA-B*58:01; [27]): 0.905 µM
